The values that follow come from patent publication US20030148445A1 (NATIONAL JEWISH MEDICAL AND RESEARCH CENTER, published 2003).

In assay [1] the target is T1, Flag-tagged sTALL-1 (Flag-sTALL-1) (human, UniProt Q9Y275 134-285).
T1 construct: Secreted from 293 cells transfected with pSec-Flag-sTALL-1; used as conditioned medium or purified on an anti-Flag column; also called soluble TALL-1
Kind of assay: competition in flow cytometry on Bjab cells. On the procedure: As described in Examples 2 and 3, cell staining was performed by sequential incubation (each 40 minutes) with anti-Flag monoclonal antibody (1 μg/ml) and RPE-conjugated goat anti-mouse IgG (1:200 dilution) in staining buffer (D-PBS containing 2% fetal bovine serum). Cells were washed two times with staining buffer following each incubation.
A general note: A flow cytometer gives signals particle by particle.

Assay [2] deals with T1, Flag-tagged sTALL-1 (Flag-sTALL-1). Kind of assay: co-immunoprecipitation with anti-HA antibody, Western blot with anti-Flag antibody. On the procedure:
(§1) 24 hours after transfection, cells were lysed in 1.0 ml lysis buffer (20 mM Tris [pH 7.5], 150 mM NaCl, 1% Triton, 1 mM EDTA, 10 μg/ml aprotinin, 10 μg/ml leupeptin, 1 mM PMSF). […] The mixtures were split into 2 aliquots and each aliquot was incubated with 0.5 μg anti-HA monoclonal antibody (BABCO, Berkeley, Calif.) (FIG. 6A; lanes 2,4,6,8) or control mouse IgG (FIG. 6A; lanes 1, 3, 5, 7), and 25 μl of a 1:1 slurry of GammaBind G Plus Sepharose at 4° C. for 3 hours. The sepharose beads were washed three times with 1 ml lysis buffer containing 500 mM NaCl. The precipitates were analyzed by Western blot with anti-Flag antibody (FIG. 6A; upper panel). […] All conditioned medium was supplemented with 10 mM Tris (pH 7.5), 100 mM NaCl, 1 mM EDTA, 10 μg/ml aprotinin, 10 μg/ml leupeptin, and 1 mM PMSF before TH immunoprecipitation experiments. Western blots were performed as described above.
(In general: A western blot detects proteins with antibodies after separation by electrophoresis.)

The target of assay [3] is T2, Flag-tagged soluble TRAIL (Flag-sTRAIL) (UniProt P50591 95-281, limits assumed).
T2 construct: not shown: Flag tag
T2 sequence (P50591 95-281 limits assumed): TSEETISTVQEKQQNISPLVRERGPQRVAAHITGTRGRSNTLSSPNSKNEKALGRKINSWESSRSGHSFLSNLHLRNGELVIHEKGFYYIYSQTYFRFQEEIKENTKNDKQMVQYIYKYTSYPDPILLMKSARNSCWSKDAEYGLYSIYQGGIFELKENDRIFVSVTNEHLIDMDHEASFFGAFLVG
Described as above. On the procedure:
as §1

Another assay concerns the target T3, TRAF2 (UniProt Q12933 1-501, limits assumed).
T3 sequence (looked up): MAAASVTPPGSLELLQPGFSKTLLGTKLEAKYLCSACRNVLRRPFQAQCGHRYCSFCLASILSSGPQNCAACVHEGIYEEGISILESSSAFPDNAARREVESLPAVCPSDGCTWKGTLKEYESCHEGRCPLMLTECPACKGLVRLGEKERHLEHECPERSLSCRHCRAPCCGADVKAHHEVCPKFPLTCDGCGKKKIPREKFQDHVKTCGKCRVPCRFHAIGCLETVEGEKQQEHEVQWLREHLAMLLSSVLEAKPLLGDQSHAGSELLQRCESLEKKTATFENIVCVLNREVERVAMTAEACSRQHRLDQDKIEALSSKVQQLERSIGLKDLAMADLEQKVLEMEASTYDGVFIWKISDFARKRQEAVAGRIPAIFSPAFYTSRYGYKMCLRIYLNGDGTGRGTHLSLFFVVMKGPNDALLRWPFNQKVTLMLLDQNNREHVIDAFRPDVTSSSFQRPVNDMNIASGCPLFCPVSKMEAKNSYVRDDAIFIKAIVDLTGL
Kind of assay: co-immunoprecipitation from transfected 293 cell lysates with anti-Flag antibody, Western blot with anti-HA antibody. On the procedure:
(§2) In the second portion of the experiment (See FIG. 10B), 293 cells were transfected with expression plasmids for HA-BCMA and the plasmids indicated in FIG. 10B. Transfected cell lysates were immunoprecipitated with anti-Flag antibody or control IgG. The immunoprecipitates were analyzed by Western blot with anti-HA antibody (FIG. 10B; upper panel).

A further assay has as its target T4, TRADD (UniProt Q15628 1-312, limits assumed).
T4 sequence (looked up): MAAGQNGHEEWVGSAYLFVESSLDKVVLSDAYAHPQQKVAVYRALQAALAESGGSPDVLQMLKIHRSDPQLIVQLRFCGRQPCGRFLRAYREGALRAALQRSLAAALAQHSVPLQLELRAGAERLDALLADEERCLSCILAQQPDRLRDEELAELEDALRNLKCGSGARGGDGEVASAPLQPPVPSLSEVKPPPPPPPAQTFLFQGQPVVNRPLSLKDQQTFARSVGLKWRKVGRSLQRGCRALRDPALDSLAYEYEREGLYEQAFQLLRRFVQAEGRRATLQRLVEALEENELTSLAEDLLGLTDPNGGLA
Described as above. On the procedure: as §2

A further assay addresses T5, RIP (UniProt Q13546 1-671, limits assumed).
T5 sequence (looked up): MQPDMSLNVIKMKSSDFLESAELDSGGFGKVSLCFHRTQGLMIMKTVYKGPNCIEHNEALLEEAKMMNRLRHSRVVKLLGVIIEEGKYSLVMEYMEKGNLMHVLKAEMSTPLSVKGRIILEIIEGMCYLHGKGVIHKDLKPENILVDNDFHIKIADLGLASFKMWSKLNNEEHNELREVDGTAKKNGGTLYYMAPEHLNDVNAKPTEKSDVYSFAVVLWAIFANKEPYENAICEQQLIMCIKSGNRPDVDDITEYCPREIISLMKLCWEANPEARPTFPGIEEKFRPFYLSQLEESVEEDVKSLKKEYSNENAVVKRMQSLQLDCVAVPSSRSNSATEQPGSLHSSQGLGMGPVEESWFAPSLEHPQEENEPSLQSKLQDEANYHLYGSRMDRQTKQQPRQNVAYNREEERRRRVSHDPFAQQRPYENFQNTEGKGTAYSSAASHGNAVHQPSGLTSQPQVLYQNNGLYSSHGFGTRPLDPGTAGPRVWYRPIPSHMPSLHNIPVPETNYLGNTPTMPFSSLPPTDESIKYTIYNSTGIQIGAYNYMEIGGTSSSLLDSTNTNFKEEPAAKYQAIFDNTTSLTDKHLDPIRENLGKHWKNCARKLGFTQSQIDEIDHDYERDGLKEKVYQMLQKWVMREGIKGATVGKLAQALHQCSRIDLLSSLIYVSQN
The description is as above. On the procedure:
as §2

T1 sequence (Q9Y275 134-285): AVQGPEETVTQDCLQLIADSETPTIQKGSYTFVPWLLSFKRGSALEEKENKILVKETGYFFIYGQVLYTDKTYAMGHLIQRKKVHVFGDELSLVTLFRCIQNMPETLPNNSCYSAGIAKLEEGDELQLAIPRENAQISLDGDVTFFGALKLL

B1: Flag-sBCMA-Fc secreted fusion protein (Fc fusion)
chain: MLQMAGQCSQNEYFDSLLHACIPCQLRCSSNTPPLTCQRYCNASVTNSVKGTNAILWTCLGL
notes: Used as 50-fold concentrated conditioned medium of transfected 293 cells; also called soluble BCMA; not shown: N-terminal Flag tag; Fc fragment of immunoglobulin G1 (IgG1), from the pCMV1-Flag-Fc plasmid
Take B1: the binding result in assay [1] is “binds”.

B2: C-terminal HA epitope-tagged BCMA (BCMA-HA) (receptor, not shown: small tags and cut ends)
chain: MLQMAGQCSQNEYFDSLLHACIPCQLRCSSNTPPLTCQRYCNASVTNSVKGTNAILWTCLGLSLIISLAVFVLMFLLRKISSEPLKDEFKNTGSGLLGMANIDLEKSRTGDEIILPRGLEYTVEECTCEDCIKSKPKVDSDHCFPLPAMEEGATILVTTKTNDYCKSLPAALSATEIEKSISAR
notes: also called HA-BCMA; B Cell Maturation Protein
As for B2, the binding result in assay [2] is listed as “binds”; in assay [3] it was “no binding (tested: 0.1 µg recombinant Flag-sTRAIL)”; with TRAF2, “no binding”; with TRADD, “no binding”; with RIP, “no binding”.
